Experiments:
PatGmac = test: Macrocyclization of substrate peptides by PatGmac; type: biochemical, Prochloron sp.
Procedure: (§1) For other macrocyclization reactions, 100 μM peptide (e.g. VGAGIGFPAYDG (SEQ ID NO: 68), VGAGIGFPAYRG (SEQ ID NO: 69), or GVAGIGFPAYRG (SEQ ID NO: 84)) was incubated with 20 μM enzyme in a range of buffers for 24 h at 37° C. (see FIGS. 1 to 3).
The VPAPIPFPAYDG (SEQ ID NO: 85) peptide was chosen to match the residues equivalent to P8-P4′, the eight-residue cassette and four C-terminal residue macrocyclization signature.
(§2) PatGmac K598D produced cyclo[VGAGIGFP] with only 8% linear product, at a rate over an order of magnitude faster than wild-type PatGmac with VGAGIGFPAYDG (SEQ ID NO: 68) (FIGS. 2 and 3).

[…] [1] = Macrocyclization reaction, final product ratios by LC-ESI MS ion counts; type: biochemical
[…] [2] = as above; type: biochemical; conditions: for Cyclic ion count (%) (M + H = 699) / Linear ion count (%) (M + H = 717) / Unprocessed ion count (%) (M + H = 1123): 100 μM peptide, 50 μM enzyme, 120 h at 37° C.
Procedure: For macrocyclization reactions comparing final product ratios after substrate depletion, 100 μM peptide (VGAGIGFPAYDG) (SEQ ID NO: 68) was incubated with 50 μM enzyme in 150 mM NaCl, 10 mM HEPES pH 8, 1 mM TCEP for 120 h at 37° C. Samples were analyzed by ESI or MALDI MS (LCT, Micromass or 4800 MALDI TOF/TOF Analyser, ABSciex).
LC-MS was performed using a Phenomenex Sunfire C18 column (4.6 mm×150 mm). Solvent A was H2O containing 0.1% formic acid and solvent B was MeOH containing 0.1% formic acid. Gradient: 0-2 min 10% B; 2-22 min 10% B to 100% B; 22-27 min 100% B; 27-30 min 100% B to 10% B. High resolution mass spectral data were obtained from a Thermo Instruments MS system (LTQ XL/LTQ Orbitrap Discovery) coupled to a Thermo Instruments HPLC system (Accela PDA detector, Accela PDA autosampler and Accela Pump). The following conditions were used: capillary voltage 45 V, capillary temperature 320° C., auxiliary gas flow rate 10-20 arbitrary units, sheath gas flow rate 40-50 arbitrary units, spray voltage 4.5 kV, mass range 100-2000 amu (maximum resolution 30000).
The peptide VGAGIGFPAYDG (SEQ ID NO: 68) was used as a substrate for PatGmac in biochemical assays (FIG. 4C[[c]]). The ratio of macrocyclized to linear product using this substrate peptide was determined by ion counts obtained from liquid chromatography-electrospray ionization mass spectrometry (LC-ESI MS).

[…] [3] = Macrocyclization of substrate with modified recognition sequence (Asp to Arg); type: biochemical
Procedure: as §1, §2

Sequence of PatGmac (as listed by the source): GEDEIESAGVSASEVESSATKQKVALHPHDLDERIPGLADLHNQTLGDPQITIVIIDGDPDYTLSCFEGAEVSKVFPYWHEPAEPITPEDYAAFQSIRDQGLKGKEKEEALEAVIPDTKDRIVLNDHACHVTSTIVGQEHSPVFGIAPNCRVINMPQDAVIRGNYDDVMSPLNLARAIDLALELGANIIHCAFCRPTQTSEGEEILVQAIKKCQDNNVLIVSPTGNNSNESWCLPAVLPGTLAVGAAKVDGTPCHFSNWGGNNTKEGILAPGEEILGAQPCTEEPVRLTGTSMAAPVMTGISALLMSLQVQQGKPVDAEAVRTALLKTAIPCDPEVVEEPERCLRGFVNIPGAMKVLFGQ

Row | Molecule | macrocyclization of the substrate by PatGmac (rate) (PatGmac) | substrate consumption rate relative to native protein ([…] [1]) | product formed (macrocyclized vs linear) ([…] [2]) | Cyclic ion count (%) (M + H = 699) ([…] [2]) | Linear ion count (%) (M + H = 717) ([…] [2]) | Unprocessed ion count (%) (M + H = 1123) ([…] [2]) | ratio of macrocyclized and linear products with VGAGIGFPAYRG ([…] [3]) | reaction rate with VGAGIGFPAYRG ([…] [3]) | linear product ([…] [3])
1 | VPAPIPFPAYDG [substrate mimic peptide, prolines mimic heterocycles] | can in fact be macrocyclized by PatGmac (albeit slowly) |  |  |  |  |  |  |  | 
2 | VGAGIGFPAYRG | an order of magnitude faster than GVAGIGFPAYRG |  |  |  |  |  |  |  | 
3 | PatGmacΔ1 (protein) GEDEIESAGVSASEVESSATKQKVALHPHDLDERIPGLADLHNQTLGDPQITIVIIDGDPDYTLSCFEGAEVSKVFPYWHEPAEPITKDRIVLNDHACHVTSTIVGQEHSPVFGIAPNCRVINMPQDAVIRGNYDDVMSPLNLARAIDLALELGANIIHCAFCRPTQTSEGEEILVQAIKKCQDNNVLIVSPTGNNSNESWCLPAVLPGTLAVGAAKVDGTPCHFSNWGGNNTKEGILAPGEEILGAQPCTEEPVRLTGTSMAAPVMTGISALLMSLQVQQGKPVDAEAVRTALLKTAIPCDPEVVEEPERCLRGFVNIPGAMKVLFGQ |  | approximately the rate of native protein | only linear VGAGIGFP | 0% | 92% | 8% |  |  | 
4 | PatGmac K594D (protein) GEDEIESAGVSASEVESSATKQKVALHPHDLDERIPGLADLHNQTLGDPQITIVIIDGDPDYTLSCFEGAEVSKVFPYWHEPAEPITPEDYAAFQSIRDQGLDGKEKEEALEAVIPDTKDRIVLNDHACHVTSTIVGQEHSPVFGIAPNCRVINMPQDAVIRGNYDDVMSPLNLARAIDLALELGANIIHCAFCRPTQTSEGEEILVQAIKKCQDNNVLIVSPTGNNSNESWCLPAVLPGTLAVGAAKVDGTPCHFSNWGGNNTKEGILAPGEEILGAQPCTEEPVRLTGTSMAAPVMTGISALLMSLQVQQGKPVDAEAVRTALLKTAIPCDPEVVEEPERCLRGFVNIPGAMKVLFGQ |  | approximately the rate of native protein | approximately one third of the product was macrocyclized | 29% | 71% | 0% | equal amounts of macrocyclized and linear products | reacted extremely slowly | 
5 | PatGmac R589D K594D K598D (protein) GEDEIESAGVSASEVESSATKQKVALHPHDLDERIPGLADLHNQTLGDPQITIVIIDGDPDYTLSCFEGAEVSKVFPYWHEPAEPITPEDYAAFQSIDDQGLDGKEDEEALEAVIPDTKDRIVLNDHACHVTSTIVGQEHSPVFGIAPNCRVINMPQDAVIRGNYDDVMSPLNLARAIDLALELGANIIHCAFCRPTQTSEGEEILVQAIKKCQDNNVLIVSPTGNNSNESWCLPAVLPGTLAVGAAKVDGTPCHFSNWGGNNTKEGILAPGEEILGAQPCTEEPVRLTGTSMAAPVMTGISALLMSLQVQQGKPVDAEAVRTALLKTAIPCDPEVVEEPERCLRGFVNIPGAMKVLFGQ |  | substantially slower | only produced linear substrate | 0% | 6% | 94% | equal amounts of macrocyclized and linear products | reacted extremely slowly | 
6 | H618A: site-directed catalytic triad mutant of PatGmac (inactive mutant) (protein) GEDEIESAGVSASEVESSATKQKVALHPHDLDERIPGLADLHNQTLGDPQITIVIIDGDPDYTLSCFEGAEVSKVFPYWHEPAEPITPEDYAAFQSIRDQGLKGKEKEEALEAVIPDTKDRIVLNDAACHVTSTIVGQEHSPVFGIAPNCRVINMPQDAVIRGNYDDVMSPLNLARAIDLALELGANIIHCAFCRPTQTSEGEEILVQAIKKCQDNNVLIVSPTGNNSNESWCLPAVLPGTLAVGAAKVDGTPCHFSNWGGNNTKEGILAPGEEILGAQPCTEEPVRLTGTSMAAPVMTGISALLMSLQVQQGKPVDAEAVRTALLKTAIPCDPEVVEEPERCLRGFVNIPGAMKVLFGQ |  |  | no detectable reaction |  |  |  |  |  | 
7 | PatGmac K598D (protein) GEDEIESAGVSASEVESSATKQKVALHPHDLDERIPGLADLHNQTLGDPQITIVIIDGDPDYTLSCFEGAEVSKVFPYWHEPAEPITPEDYAAFQSIRDQGLKGKEDEEALEAVIPDTKDRIVLNDHACHVTSTIVGQEHSPVFGIAPNCRVINMPQDAVIRGNYDDVMSPLNLARAIDLALELGANIIHCAFCRPTQTSEGEEILVQAIKKCQDNNVLIVSPTGNNSNESWCLPAVLPGTLAVGAAKVDGTPCHFSNWGGNNTKEGILAPGEEILGAQPCTEEPVRLTGTSMAAPVMTGISALLMSLQVQQGKPVDAEAVRTALLKTAIPCDPEVVEEPERCLRGFVNIPGAMKVLFGQ |  | approximately the rate of native protein | only linear VGAGIGFP | 0% | 100% | 0% |  | over an order of magnitude faster than wild-type PatGmac with […] | 8%
8 | PatGmacΔ2 (protein) GEDEIESAGVSASEVESSATKQKVALHPHDLDERIPGLADLHNQTLGDPQITIVIIDGDPDYTLSCFEGAEVSKVFPYWHEPAEPILNDHACHVTSTIVGQEHSPVFGIAPNCRVINMPQDAVIRGNYDDVMSPLNLARAIDLALELGANIIHCAFCRPTQTSEGEEILVQAIKKCQDNNVLIVSPTGNNSNESWCLPAVLPGTLAVGAAKVDGTPCHFSNWGGNNTKEGILAPGEEILGAQPCTEEPVRLTGTSMAAPVMTGISALLMSLQVQQGKPVDAEAVRTALLKTAIPCDPEVVEEPERCLRGFVNIPGAMKVLFGQ |  | approximately the rate of native protein | only linear VGAGIGFP | 0% | >99% | <1% |  |  | 

Source: patent US10494657B2, “In vitro production of cyclic peptides” (The University Court of the University of Aberdeen, priority 2012, dated 2019)
